Holding throughout (settings): 50 mM citric acid sodium citrate buffer, pH 4.8, 50 °C
One series deals with T1, CT-CBH.
T1 construct: gene cbh1; single-chain fusion: C. thermophilum CBHI (GenBank AM711862.1) with its CBM replaced by that of T. reesei CBHI; secreted from T. reesei Tu-6 delta-ku70
As to the kind of experiment: fluorescence of released methylumbelliferone (ex […], em […] nm), Michaelis-Menten nonlinear fit. The series is classed as biochemical, Thermochaetoides thermophila; Trichoderma reesei.

The test system of another series is T2, TC-CBH.
T2 construct: gene cbh1; single-chain fusion: T. reesei CBHI with its CBM replaced by that of C. thermophilum CBHI (GenBank AM711862.1); secreted from T. reesei Tu-6 delta-ku70
The description is as above. The series is classed as biochemical, Trichoderma reesei; Thermochaetoides thermophila.

Substrate in series [1]: Cc1cc(=O)oc2cc(O[C@@H]3O[C@H](CO)[C@@H](O[C@@H]4O[C@H](CO)[C@@H](O)[C@H](O)[C@H]4O)[C@H](O)[C@H]3O)ccc12
As to the kind of experiment: purified protein. The series is classed as biochemical, Trichoderma reesei.

Substrate in series [2]: Cc1cc(=O)oc2cc(O[C@@H]3O[C@H](CO)[C@@H](O[C@@H]4O[C@H](CO)[C@@H](O)[C@H](O)[C@H]4O)[C@H](O)[C@H]3O)ccc12
The experiment in a line: purified protein. The series is classed as biochemical, Thermochaetoides thermophila.

The term Km denotes the substrate concentration at which the rate is half of its maximum. On to `Cc1cc(=O)oc2cc(O[C@@H]3O[C@H](CO)[C@@H](O[C@@H]4O[C@H](CO)[C@@H](O)[C@H](O)[C@H]4O)[C@H](O)[C@H]3O)ccc12` [MUC], for which the figures for the Km in the series on CT-CBH and in the series on TC-CBH were 700 µM and 1200 µM, respectively.

B1: T-CBH (Trichoderma reesei CBHI) (Trichoderma reesei QM6a) (protein)
chain: QSACTLQSETHPPLTWQKCSSGGTCTQQTGSVVIDANWRWTHATNSSTNCYDGNTWSSTLCPDNETCAKNCCLDGAAYASTYGVTTSGNSLSIGFVTQSAQKNVGARLYLMASDTTYQEFTLLGNEFSFDVDVSQLPCGLNGALYFVSMDADGGVSKYPTNTAGAKYGTGYCDSQCPRDLKFINGQANVEGWEPSSNNANTGIGGHGSCCSEMDIWEANSISEALTPHPCTTVGQEICEGDGCGGTYSDNRYGGTCDPDGCDWNPYRLGNTSFYGPGSSFTLDTTKKLTVVTQFETSGAINRYYVQNGVTFQQPNAELGSYSGNELNDDYCTAEEAEFGGSSFSDKGGLTQFKKATSGGMVLVMSLWDDYYANMLWLDSTYPTNETSSTPGAVRGSCSTSSGVPAQVESQSPNAKVTFSNIKFGPIGSTGNPSGGNPPGGNPPGTTTTRRPATTTGSSPGPTQSHYGQCGGIGYSGPTVCASGTTCQVLNPYYSQCL
notes: full length: catalytic domain, linker, CBM; secreted from T. reesei Tu-6 delta-ku70 (cDNA1 promoter); no tag stated; concentrated by 30 kDa ultrafiltration
A word on the kcat: it is the maximal rate divided by the concentration of active sites. The term kcat/Km denotes the second-order rate constant that governs catalysis at low substrate concentration. For B1, in the series “purified protein [1]”, the Km is 1300 µM, the kcat was determined as 1.29 s⁻¹ and the specificity constant (kcat/Km) stood at 1030 M⁻¹ s⁻¹.

B2: C-CBH (Chaetomium thermophilum CBHI) (Thermochaetoides thermophila) (protein)
chain: QQACSLTAENHPSLTWKRCTSGGSCSTVNGAVTIDANWRWTHTVSGSTNCYTGNQWDTSLCTDGKSCAQTCCVDGADYSSTYGITTSGDSLNLKFVTKHQYGTNVGSRVYLMENDTKYQMFELLGNEFTFDVDVSNLGCGLNGALYFVSMDADGGMSKYSGNKAGAKYGTGYCDAQCPRDLKFINGEANVGNWTPSTNDANAGFGRYGSCCSEMDVWEANNMATAFTPHPCTTVGQSRCEADTCGGTYSSDRYAGVCDPDGCDFNAYRQGDKTFYGKGMTVDTNKKMTVVTQFHKNSAGVLSEIKRFYVQDGKIIANAESKIPGNPGNSITQEYCDAQKVAFSNTDDFNRKGGMAQMSKALAGPMVLVMSVWDDHYANMLWLDSTYPIDQAGAPGAERGACPTTSGVPAEIEAQVPNSNVIFSNIRFGPIGSTVPGLDGSNPGNPTTTVVPPASTSTSRPTSSTSSPVSTPTGQPGGCTTQKWGQCGGIGYTGCTNCVAGTTCTQLNPWYSQCL
notes: full length: catalytic domain, linker, CBM; secreted from T. reesei Tu-6 delta-ku70 (common signal peptide for all four constructs, cDNA1 promoter); no tag stated; concentrated by 30 kDa ultrafiltration
As for B2, in “purified protein [2]”, the Michaelis constant (Km) was found to be 1100 µM, the turnover number (kcat) is 1.56 s⁻¹ and the catalytic efficiency (kcat/Km) worked out at 1480 M⁻¹ s⁻¹.

For the origin of these results see publication PMC12072009, “Catalytic Efficiency Improvement in Cellobiohydrolase I by Cross-Species Domain Exchange Engineering” (International Journal of Molecular Sciences, 2025).
